Experimental data as given in patent US9382305B2, “Relaxin fusion polypeptides and uses thereof” (BAYER INTELLECTUAL PROPERTY GMBH, priority 2011, dated 2016).

How the values were obtained:
[1] = test system: isolated perfused rat heart; experiment: Isolated perfused rat heart (Langendorff); parameters: species or system Wistar rats
Procedure: Male Wistar rats (200-250 g) were anesthetized using Narcoren (100 mg/kg i.p.). The heart was rapidly excised and connected to a Langendorff perfusion system (FMI GmbH, Seeheim-Ober Beerbach, Germany). The heart was perfused at a constant rate of 10 ml/min with Krebs-Henseleit bicarbonate buffer solution equilibrated with 95% O2-5% CO2. The perfusion solution contained (in mmol/l): NaCl 118; KCl 3; NaHCO3 22; KH2PO41,2; MgSO4 1,2; CaCl2 1,8; Glucose 10; Na-Pyruvat 2. A pressure transducer registered the perfusion pressure in the perfusion system. The left ventricular pressure (LVP) was measured using a second pressure transducer connected to a water-filled balloon which was inserted into the left ventricle via the left atrium. The end diastolic pressure was initially set to 8 mm Hg by adjusting the volume of the balloon. The hearts were spontaneously beating. The signals from the pressure transducer were amplified, registered and used for the calculation of the heart frequency and +dp/dt by a personal computer.

[2] = molecular target: T1, human LGR7/RXFP1 receptor (Homo sapiens, UniProt Q9HBX9); experiment: Relaxin activity of plasma samples from scR-Fc 13 treated rats on CHO-CRE-LGR7 cell line; type: cell-based; conditions: plasma 3, 5 and 7 days after intravenous administration to rats
T1 construct: cloned as 2271 base pair long DNA fragment; expressed in transfected cells; host or cells: CHO K1 (ATCC CCL-61) with CRE-luciferase reporter; receptor in pcDNA3.1(-)
T1 sequence (Q9HBX9 1-757): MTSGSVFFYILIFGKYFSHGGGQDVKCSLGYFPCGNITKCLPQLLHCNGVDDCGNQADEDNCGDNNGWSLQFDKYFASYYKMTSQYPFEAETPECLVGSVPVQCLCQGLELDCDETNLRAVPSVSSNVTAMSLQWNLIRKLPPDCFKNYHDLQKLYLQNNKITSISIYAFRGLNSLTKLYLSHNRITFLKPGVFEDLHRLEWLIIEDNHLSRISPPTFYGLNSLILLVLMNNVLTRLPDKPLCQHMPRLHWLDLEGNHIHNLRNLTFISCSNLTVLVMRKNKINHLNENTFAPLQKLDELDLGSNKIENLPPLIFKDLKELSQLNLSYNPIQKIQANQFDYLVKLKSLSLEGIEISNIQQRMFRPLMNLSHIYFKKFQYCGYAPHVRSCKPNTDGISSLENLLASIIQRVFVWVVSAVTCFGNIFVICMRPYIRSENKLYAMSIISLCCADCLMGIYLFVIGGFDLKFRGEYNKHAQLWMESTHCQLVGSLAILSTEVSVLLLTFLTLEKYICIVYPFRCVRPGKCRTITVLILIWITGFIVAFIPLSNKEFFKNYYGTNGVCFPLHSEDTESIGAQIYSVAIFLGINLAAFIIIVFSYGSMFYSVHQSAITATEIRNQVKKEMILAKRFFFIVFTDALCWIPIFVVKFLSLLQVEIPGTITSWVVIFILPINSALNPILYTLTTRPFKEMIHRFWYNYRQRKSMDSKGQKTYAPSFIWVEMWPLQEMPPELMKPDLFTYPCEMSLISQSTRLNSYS
Procedure: Relaxin activity in blood samples obtained from scR-Fc 13 treated rats by using the CHO-CRE-LGR7 cell line was determined. Blood samples collected 3, 5, and 7 days after intravenous administration of scR-Fc 13 were incubated on the CHO-CRE-LGR7 cell line and Relative Lights Units were determined. Calibration curves were determined using hRelaxin 2 (R&D Systems, catalogue number 6586-RN-025) and purified scR-Fc 13. The EC50 within the dose response curve is marked by an X. Data are expressed as Relative Light Units, representing the activity of scR-Fc variants and hRelaxin 2 induced luciferase expression. Symbols represent means, error bars represent S.E.M.

activity of plasma samples [2]: activity could be determined
B1: scR-Fc 13: rat IgG2b Fc (6 Histidine tag) linked via GlyGlySerGlyGlySerGlyGlySerPro to N terminal end of scR4; SEQ ID NO: 28 (protein)
chain: HHHHHHPTCPTCHKCPVPELLGGPSVFIFPPKPKDILLISQNAKVTCVVVDVSEEEPDVQFSWFVNNVEVHTAQTQPREEQYNSTFRVVSALPIQHQDWMSGKEFKCKVNNKALPSPIEKTISKPKGLVRKPQVYVMGPPTEQLTEQTVSLTCLTSGFLPNDIGVEWTSNGHIEKNYKNTEPVMDSDGSFFMYSKLNVERSRWDSRAPFVCSVVHEGLHNHHVEKSISRPPGKGGSGGSGGSPQLYSALANKCCHVGCTKRSLARFCGGGSGGGSGSWMEEVIKLCGRELVRAQIAICGMSTWS
coronary flow ([1]; perfusion, FIG. 11): significant increase | heart rate ([1]; perfusion, FIG. 11): significant increase | left ventricular diastolic pressure ([1]; perfusion, FIG. 11): decrease | left ventricular pressure (+dp/dtmax) ([1]; perfusion, FIG. 11): decrease | effects on heart rate, coronary flow and contractility compared with hRelaxin 2 ([1]; ten fold higher concentration than hRelaxin 2 (1 nM)): Comparable effects
